Columns and labels:
[1] = target: wild-type 6xHis-tagged p16 expressed in HEK293 cells (human) (UniProt P42771); assay: cross-linking; HEK293 cells transiently expressing p16-His variants, 200 µM H2O2 in media for the times indicated, stopped with 10 µg/mL catalase and 50 mM NEM; non-reducing SDS-PAGE and western blot for p16
[2] = target: endogenous p16 of Ishikawa cells (human (endogenous in Ishikawa cells)) (UniProt P42771); assay: cross-linking; lysates of cancer cell lines without added oxidant, SDS lysis buffer, non-reducing SDS-PAGE and western blot for p16
[3] = target: the molecule itself; assay: cross-linking; intermolecular disulfide formed by oxidant (20 µM p16, 200 µM diamide, or H2O2 with or without 25 mM bicarbonate), 4 mM HEPES pH 7.4, room temperature; free cysteines blocked with 10 mM NEM; non-reducing SDS-PAGE
[4] = target: the molecule itself; assay: Thioflavin-T fluorescence (amyloid formation); 20 µM p16 (series 5-60 µM), 10 µM ThT, oxidant (200 µM diamide, or H2O2 with or without bicarbonate) added at the start, 4 mM HEPES pH 7.4, 25 °C, quiescent

Molecule	binding result [4]	further results
wild-type 6xHis-tagged p16 expressed in HEK293 cells (from UniProt P42771 1-156) (natural protein)	–	stoichiometry N [1]: 2
endogenous p16 of Ishikawa cells (from UniProt P42771 1-156) (natural protein)	–	stoichiometry N [2]: 2
p16^INK4a, wild type (recombinant) (natural protein, human, p16INK4a, UniProt P42771; Self-association needs oxidation of Cys72 (diamide or H2O2): intermolecular disulfide dimer, then oligomers and amyloid fibrils; Constructs obtained from Genscript; also called wild-type p16; monomeric p16; source: E. coli BL21(DE3), purified (Ni-NTA, SEC, TEV cleavage, second Ni-NTA, desalting); not shown: His6, N-terminal, cleaved; protein A tag, N-terminal, cleaved) GAMEPAAGSSMEPSADWLATAAARGRVEEVRALLEAGALPNAPNSYGRRPIQVMMMGSARVAELLLLHGAEPNCADPATLTRPVHDAAREGFLDTLVVLHRAGARLDVRDAWGRLPVDLAEELGHRDVARYLRAAAGGTRGSNHARIDAAEGPSDIPD	–	stoichiometry N [3]: 2
p16^INK4a A20S (recombinant) (natural protein, human, p16INK4a, UniProt P42771; previously reported cancer mutation; source: E. coli BL21(DE3), purified (Ni-NTA, SEC, TEV cleavage, second Ni-NTA, desalting); not shown: His6, N-terminal, cleaved; protein A tag, N-terminal, cleaved) GAMEPAAGSSMEPSADWLATASARGRVEEVRALLEAGALPNAPNSYGRRPIQVMMMGSARVAELLLLHGAEPNCADPATLTRPVHDAAREGFLDTLVVLHRAGARLDVRDAWGRLPVDLAEELGHRDVARYLRAAAGGTRGSNHARIDAAEGPSDIPD	binds	–
p16^INK4a G122S (recombinant) (natural protein, human, p16INK4a, UniProt P42771; previously reported cancer mutation; source: E. coli BL21(DE3), purified (Ni-NTA, SEC, TEV cleavage, second Ni-NTA, desalting); not shown: His6, N-terminal, cleaved; protein A tag, N-terminal, cleaved) GAMEPAAGSSMEPSADWLATAAARGRVEEVRALLEAGALPNAPNSYGRRPIQVMMMGSARVAELLLLHGAEPNCADPATLTRPVHDAAREGFLDTLVVLHRAGARLDVRDAWGRLPVDLAEELSHRDVARYLRAAAGGTRGSNHARIDAAEGPSDIPD	binds	–
p16^INK4a L37S (recombinant, stabilizing mutation) (natural protein, human, p16INK4a, UniProt P42771; source: E. coli BL21(DE3), purified (Ni-NTA, SEC, TEV cleavage, second Ni-NTA, desalting); not shown: His6, N-terminal, cleaved; protein A tag, N-terminal, cleaved) GAMEPAAGSSMEPSADWLATAAARGRVEEVRALLEAGASPNAPNSYGRRPIQVMMMGSARVAELLLLHGAEPNCADPATLTRPVHDAAREGFLDTLVVLHRAGARLDVRDAWGRLPVDLAEELGHRDVARYLRAAAGGTRGSNHARIDAAEGPSDIPD	binds	–
p16^INK4a A127S (recombinant) (natural protein, human, p16INK4a, UniProt P42771; previously reported cancer mutation; source: E. coli BL21(DE3), purified (Ni-NTA, SEC, TEV cleavage, second Ni-NTA, desalting); not shown: His6, N-terminal, cleaved; protein A tag, N-terminal, cleaved) GAMEPAAGSSMEPSADWLATAAARGRVEEVRALLEAGALPNAPNSYGRRPIQVMMMGSARVAELLLLHGAEPNCADPATLTRPVHDAAREGFLDTLVVLHRAGARLDVRDAWGRLPVDLAEELGHRDVSRYLRAAAGGTRGSNHARIDAAEGPSDIPD	binds	–
p16^INK4a D84N (recombinant) (natural protein, human, p16INK4a, UniProt P42771; previously reported cancer mutation; source: E. coli BL21(DE3), purified (Ni-NTA, SEC, TEV cleavage, second Ni-NTA, desalting); not shown: His6, N-terminal, cleaved; protein A tag, N-terminal, cleaved) GAMEPAAGSSMEPSADWLATAAARGRVEEVRALLEAGALPNAPNSYGRRPIQVMMMGSARVAELLLLHGAEPNCADPATLTRPVHNAAREGFLDTLVVLHRAGARLDVRDAWGRLPVDLAEELGHRDVARYLRAAAGGTRGSNHARIDAAEGPSDIPD	binds	–
p16^INK4a V95A (recombinant) (natural protein, human, p16INK4a, UniProt P42771; previously reported cancer mutation; source: E. coli BL21(DE3), purified (Ni-NTA, SEC, TEV cleavage, second Ni-NTA, desalting); not shown: His6, N-terminal, cleaved; protein A tag, N-terminal, cleaved) GAMEPAAGSSMEPSADWLATAAARGRVEEVRALLEAGALPNAPNSYGRRPIQVMMMGSARVAELLLLHGAEPNCADPATLTRPVHDAAREGFLDTLAVLHRAGARLDVRDAWGRLPVDLAEELGHRDVARYLRAAAGGTRGSNHARIDAAEGPSDIPD	binds	–
